Data as given in patent EP4644426A1 (Gan & Lee Pharmaceuticals Co., Ltd., dated 2025).

Experiments:
human FXIa factor [1] = target: T1, human FXIa factor (human, UniProt P03951 19-625); assay: cell-based or functional assay
human FXIa factor [2] = target: T1, human FXIa factor; assay: cell-based or functional assay; remark: listed apart in the source
human FXIa factor [3] = target: T1, human FXIa factor; assay: cell-based or functional assay; remark: listed apart in the source
human FXIa factor [4] = target: T1, human FXIa factor; assay: cell-based or functional assay; remark: listed apart in the source
human FXIa factor [5] = target: T1, human FXIa factor; assay: cell-based or functional assay; remark: listed apart in the source
human FXIa factor [6] = target: T1, human FXIa factor; assay: Biacore 8K (SPR), human FXIa in 2-fold dilution series

B1: chimeric antibody 3B3 (antibody, V domains shown)
VH: EVQLEESGADLVRPGTSVKVSCKASGYAFTNYLIDWLKQRPGQGLEWIGVINPGSGITNYNEKFKGKATLTTDTSSSTAYMQLTNLTSDDSAVYFCARGDGTYYEDFLDYWGQGTSVTVSS
VL: DIVLTQTTSSIYTSLGERVTITCKASQDINSYLSWFQQRPGRSPKTLIYRANRLMDGVPSRFSGSGSGRDFSLTISSLDYEDMGIYYCLQYDEFPLTFGAGTKLELK
Human FXIa factor [1]
  IC50(nM) from S2366 assay (Fourth Batch): 42.4 nM

B2: chimeric antibody 17E10 (antibody, V domains shown)
VH: EVQLEESGPGLVKPSQSLSLTCSVTGYSITSGFYWNWIRQFPGNKLEWMGYISFDGRHNYNPSLKNRFSITRDTSKNQFFLKLTSVTAEDTATYYCARDLITTVYYYPMDYWGQGTSVTVSS
VL: DIVMTQSHKFMSTSVGDRVSITCKASQDVGTAVDWYQQKTGQSPKLLIYWASTRHTGVPDRFTGSGSGTDFTLTISNVQSEDLADYFCQQYSNYPLTFGAGTKLELK
Human FXIa factor [2]
  FXIa Kit Activity Assay (nM), IC50 (First Batch): 11.6 nM

B3: chimeric antibody 14F3 (antibody, V domains shown)
VH: QVQLQQSGAELVRPGTSVTVSCKASGYAFSNYLIEWVNQRPGQGLEWIGVINPGSGYTNYNENFKDKATLTADTSSSTAYMQLSSLTSDDSAVYFCARTYGKYGGAMDFWGQGTSVTVSS
VL: DIVMTQTPKFLLVSAGDRVTITCKASQSVSNDVAWYQQKPGQSPKLLIYYISNRYTGVPDRFTGSGYGTDFTFTINTVQAEDLAVYFCQQDYSSPPTFGGGTKLEIK
Human FXIa factor [1]
  IC50(nM) from S2366 assay (First Batch): 78.7 nM
Human FXIa factor [2]
  FXIa Kit Activity Assay (nM), IC50 (First Batch): 7.77 nM

B4: 14F3-sy (antibody, V domains shown)
VH: QVQLQQSGAELVRPGTSVTVSCKASGYAFSNYLIEWVNQRPGQGLEWIGVINPGSGYTNYNENFKDKATLTADTSSSTAYMQLSSLTSDDSAVYFCARTYGKYGGAMDFWGQGTSVTVSS
VL: DIVMTQTPKFLLVSAGDRVTITCKASQSVSNDVAWYQQKPGQSPKLLIYYISNRYTGVPDRFTGSGYGTDFTFTINTVQAEDLAVYFCQQDYSSPPTFGGGTKLEIK
Human FXIa factor [3]
  OD405nm, S2366 activity assay, antibody at 20µg/mL: 0.211 OD405nm

B5: chimeric antibody 29E10C4 (antibody, V domains shown)
VH: QVKLEESGAELVRPGTSVKVSCKASGYAFTDYFIEWIKQRPGQGLEWIGVINPGNDVTNYNEKFKGKATLTVDKSSTTAYMQLSSLTSDDSAVYFCTRSAGNYENSMDFWGQGTSVTVSS
VL: DIVLTQSPKFLLVSAGDRVTITCKASQSVSNDVGWYQQKPGQSPKLLIYYTSNRYTGVPDRFTGSGYGTDFTFTISSVQAEDLAVYFCQQDYHFPLTFGAGTKLELK
Human FXIa factor [1]
  IC50(nM) from S2366 assay (Second Batch): 34.9 nM
Human FXIa factor [2]
  FXIa Kit Activity Assay (nM), IC50 (Second Batch): 0.219 nM

B6: humanized antibody 14F3-Z1 (antibody, human IgG1, kappa, V domains shown)
VH: QVQLVQSGAEVKKPGASVKVSCKASGYAFSNYLIEWVGQAPGQGLEWMGVINPGSGYTNYNENFKDRVTMTAHTSISTAYMELSRLRSDDTAVYFCARTYGKYGGAMDFWGQGTLVTVSS
VL: DIQMTQSPSSLSASVGDRVTITCKASQSVSNDVAWYQQKPGKAPKLLIYYISNRYTGVPSRFSGSGSGTDFTFTISSLQPEDIATYFCQQDYSSPPTFGQGTKLEIKR
Human FXIa factor [4]
  FXIa kit Activity Assay (nM), IC50: 8.53 nM
Human FXIa factor [5]
  IC50 (nM) from S2366 Assay: 54.1 nM

B7: humanized antibody 14F3-2 (antibody, human IgG1, kappa, V domains shown)
VH: QVQLVQSGAEVKKPGASVKVSCKASGYTFTNYLIEWVRQAPGQGLEWMGVINPGSGYTNYNENFKDRVTMTRDTSISTAYMELSRLRSDDTAVYYCARTYGKYGGAMDFWGQGTTVTVSS
VL: DIVMTQSPDSLAVSLGERATINCKASQSVSNDVAWYQQKPGQPPKLLIYYISNRYTGVPDRFSGSGSGTDFTLTISSLQAEDVAVYFCQQDYSSPPTFGGGTKLEIKR
Human FXIa factor [4]
  FXIa kit Activity Assay (nM), IC50: 9.69 nM
Human FXIa factor [5]
  IC50 (nM) from S2366 Assay: 43 nM

B8: humanized antibody 14F3-1 (antibody, human IgG1, kappa, V domains shown)
VH: QVQLVQSGAEVKKPGASVKVSCKASGYTFTNYLIEWVRQAPGQGLEWMGVINPGSGYTNYNENFKDRVTMTRDTSISTAYMELSRLRSDDTAVYYCARTYGKYGGAMDFWGQGTTVTVSS
VL: DIVMTQSPDSLAVSLGERATINCKASQSVSNDVAWYQQKPGQPPKLLIYYISNRYTGVPDRFSGSGSGTDFTLTISSLQAEDVAVYYCQQDYSSPPTFGGGTKLEIKR
notes: To be verified
Human FXIa factor [6]
  Kd: 0.000809 nM
  koff: 1.05e-05 s⁻¹
  kon: 1.3e+07 M⁻¹ s⁻¹
Human FXIa factor [4]
  FXIa kit Activity Assay (nM), IC50: 7.5 nM
Human FXIa factor [5]
  IC50 (nM) from S2366 Assay: 45.4 nM

B9: humanized antibody 14F3-3 (antibody, human IgG1, kappa, V domains shown)
VH: QVQLVQSGAEVKKPGASVKVSCKASGYTFTNYLIEWVRQAPGQGLEWIGVINPGSGYTNYNENFKDRATLTADTSISTAYMELSRLRSDDTAVYFCARTYGKYGGAMDFWGQGTTVTVSS
VL: DIVMTQSPDSLAVSLGERATINCKASQSVSNDVAWYQQKPGQPPKLLIYYISNRYTGVPDRFSGSGSGTDFTLTISSLQAEDVAVYYCQQDYSSPPTFGGGTKLEIKR
Human FXIa factor [4]
  FXIa kit Activity Assay (nM), IC50: 10.7 nM
Human FXIa factor [5]
  IC50 (nM) from S2366 Assay: 52.7 nM

B10: humanized antibody 14F3-4 (antibody, human IgG1, kappa, V domains shown)
VH: QVQLVQSGAEVKKPGASVKVSCKASGYTFTNYLIEWVRQAPGQGLEWIGVINPGSGYTNYNENFKDRATLTADTSISTAYMELSRLRSDDTAVYFCARTYGKYGGAMDFWGQGTTVTVSS
VL: DIVMTQSPDSLAVSLGERATINCKASQSVSNDVAWYQQKPGQPPKLLIYYISNRYTGVPDRFSGSGSGTDFTLTISSLQAEDVAVYFCQQDYSSPPTFGGGTKLEIKR
Human FXIa factor [4]
  FXIa kit Activity Assay (nM), IC50: 15.7 nM
Human FXIa factor [5]
  IC50 (nM) from S2366 Assay: 64.7 nM

B11: humanized antibody 14F3-Z2 (antibody, human IgG1, kappa, V domains shown)
VH: QVQLVQSGAEVKKPGASVKVSCKASGYAFSNYLIEWVGQAPGQGLEWMGVINPGSGYTNYNENFKDRVTMTRHTSISTAYMELSRLRSDDTAVYFCARTYGKYGGAMDFWGQGTLVTVSS
VL: DIQMTQSPSSLSASVGDRVTITCKASQSVSNDVAWYQQKPGKAPKLLIYYISNRYTGVPSRFSGSGSGTDFTFTISSLQPEDIATYYCQQDYSSPPTFGQGTKLEIKR
Human FXIa factor [4]
  FXIa kit Activity Assay (nM), IC50: 8.79 nM
Human FXIa factor [5]
  IC50 (nM) from S2366 Assay: 57.3 nM

B12: humanized antibody 14F3-Z4 (antibody, human IgG1, kappa, V domains shown)
VH: QVQLVQSGAEVKKPGSSVKVSCKASGYAFSNYLIEWVRQAPGQGLEWMGVINPGSGYTNYNENFKDRVTITADESTSTAYMELSSLRSEDTAVYFCARTYGKYGGAMDFWGQGTTVTVSS
VL: DIQMTQSPSFLSASVGDRVTITCKASQSVSNDVAWYQQKPGKAPKLLIYYISNRYTGVPSRFSGSGSGTDFTLTISSLQPEDFATYFCQQDYSSPPTFGQGTKLEIKR
Human FXIa factor [4]
  FXIa kit Activity Assay (nM), IC50: 13.6 nM
Human FXIa factor [5]
  IC50 (nM) from S2366 Assay: 55.8 nM

B13: humanized antibody 14F3-Z3 (antibody, human IgG1, kappa, V domains shown)
VH: QVQLVQSGAEVKKPGSSVKVSCKASGYAFSNYLIEWVRQAPGQGLEWMGVINPGSGYTNYNENFKDRVTITADESTSTAYMELSSLRSEDTAVYYCARTYGKYGGAMDFWGQGTTVTVSS
VL: DIQMTQSPSFLSASVGDRVTITCKASQSVSNDVAWYQQKPGKAPKLLIYYISNRYTGVPSRFSGSGSGTDFTLTISSLQPEDFATYYCQQDYSSPPTFGQGTKLEIKR
Human FXIa factor [4]
  FXIa kit Activity Assay (nM), IC50: 13.5 nM
Human FXIa factor [5]
  IC50 (nM) from S2366 Assay: 56.3 nM

B14: chimeric antibody 11E8 (antibody, V domains shown)
VH: EVKLQESGPELVKTGASVKISCKASGYSFTGYFMNWVKQSHGKSLEWIGFINCYNGATSYNQKFKGKATFTVDASSSSAYMQFNSLTSEDSAVYYCARTISTGDSFDYWGQGSTLTVSS
VL: DIVMTQSTSYLSVSLGGRVTITCKASDHINNWLAWYQQKPGDAPSLLISGASRLETGVPSRFSGSGSGKDYTLSITSLQTEDVATYYCQQYWTTPFTFGSGTKLEIK
Human FXIa factor [1]
  IC50(nM) from S2366 assay (Third Batch): 93.1 nM
Human FXIa factor [2]
  FXIa Kit Activity Assay (nM), IC50 (Third Batch): 7.8 nM

B15: chimeric antibody 19C9C10 (antibody, V domains shown)
VH: EVKLEESGAELVKTGASVKLSCTASGFNIKDTYMHWVKQRPEQGLEWIGRIDPANDNTKYDPKFQGRATVTADTSSNTAYLQLISLTSEDTAVYYCAGDYDGYAMDYWGQGTSVTVSS
VL: DIVMTQTTSSLSVSLGGKVTITCKASQDINKYVAWFQHKPGKGPRLLMHYTSTLEPGIPSRFSGSGSGRDYSFTISNLEPEDIATYYCLQYDNLLTFGGGTKLEIK
Human FXIa factor [1]
  IC50(nM) from S2366 assay (Second Batch): 38.5 nM
Human FXIa factor [2]
  FXIa Kit Activity Assay (nM), IC50 (Second Batch): 1.31 nM

B16: Osocimab (antibody, V domains shown)
VH: EVQLLESGGGLVQPGGSLRLSCAASGFTFSQYGMDWVRQAPGKGLEWVSGIGPSGGSTVYADSVKGRFTISRDNSKNTLYLQMNSLRAEDTAVYYCTRGGPYYYYGMDVWGQGTTVTVSS
VL: DIQMTQSPSSLSASVGDRVTITCQASQDISNYLNWYQQKPGKAPKLLIYDASNLETGVPSRFSGSGSGTDFTFTISSLQPEDIATYYCQQADSFPVTFGGGTKVEIK
Human FXIa factor [6]
  Kd: 6.37 nM
  koff: 0.00411 s⁻¹
  kon: 645000 M⁻¹ s⁻¹
Human FXIa factor [4]
  FXIa kit Activity Assay (nM), IC50: 32.5 nM
Human FXIa factor [5]
  IC50 (nM) from S2366 Assay: 226 nM

B17: chimeric antibody 17E3C10 (antibody, V domains shown)
VH: QVKLQESGPELRKPGETVYISCKASGYTFTNYGVNWVKQAPGKGLKWMGWINTYTGEPIYADDFKGRFAFSLETSANTAYLQISNLTNEDTATYFCARLYLYGNTYDYYAMDYWGQGTSVTVSS
VL: DIVLTQTPSSMYASLGERVTITCKASQDISTYLSWFQQKPGKSPKTLIYRANRLIDGVPSRFSGSGSGQDFSLTISSLEYEDMGVYYCLQYDDLNTFGGGTKLEIK
Human FXIa factor [1]
  IC50(nM) from S2366 assay (Second Batch): 44.4 nM
Human FXIa factor [2]
  FXIa Kit Activity Assay (nM), IC50 (Second Batch): 0.781 nM

B18: 24B6-sy (antibody, V domains shown)
VH: EVQLQESGGDLVKPGGSLKLSCAASGFTFSSYGMSWVRQTPDKRLEWVATISSGGSFTYYPDSVKGRFTISRDNAKNTLYLQMSSLKSEDTAMYYCASLTSEGYAMEYWGQGTSVTVSS
VL: DIVLTQSPASLAVSLGQRATISCRASKSVSTSGYSHMHWYQQKLGQPPKLLIYLASNLESGVPARFSGSGSGTDFTLNIHPVEEEDAATYYCQHSRELPYTFGGGTKLEIK
Human FXIa factor [3]
  OD405nm, S2366 activity assay, antibody at 20µg/mL: 0.268 OD405nm

B19: chimeric antibody 24B6 (antibody, V domains shown)
VH: EVQLQESGGDLVKPGGSLKLSCAASGFTFSSYGMSWVRQTPDKRLEWVATISSGGSFTYYPDSVKGRFTISRDNAKNTLYLQMSSLKSEDTAMYYCASLTSEGYAMEYWGQGTSVTVSS
VL: DIVLTQSPASLAVSLGQRATISCRASKSVSTSGYSHMHWYQQKLGQPPKLLIYLASNLESGVPARFSGSGSGTDFTLNIHPVEEEDAATYYCQHSRELPYTFGGGTKLEIK
Human FXIa factor [1]
  IC50(nM) from S2366 assay (First Batch): 122 nM
Human FXIa factor [2]
  FXIa Kit Activity Assay (nM), IC50 (First Batch): 6.7 nM
